Article PMC10350915, “Development of a New Class of CXCR4-Targeting Radioligands Based on the Endogenous Antagonist EPI-X4 for Oncological Applications” (Journal of Medicinal Chemistry, 2023)
One block for each molecule: values may come before it. Square brackets hold non-standard residues; d marks the D form. Peptide text beside a SMILES is read from it. * marks the point of attachment. DOTA = O=C(O)CN1CCN(CC(=O)O)CCN(CC(=O)*)CCN(CC(=O)O)CC1; Palmitoyl = CCCCCCCCCCCCCCCC(=O)*

Tests used:
Jurkat xenografts [1] = type: in vivo, mouse; details: 1 h p.i., SPECT/CT or PET/CT
Experimental: The ability of the ^177Lu ligands to target CXCR4 in vivo was assessed by SPECT/CT imaging in Jurkat xenografts. […] 1 h after injection, the remaining amount of radioligand in the body (and vice versa, the washout) was quantified by measuring the total body activity (mouse) in a dose calibrator. The % of the radioligand remaining in the body after 1 h is reported in Figure 6A as % of the remaining activity in reference to the injected activity (100%).
Figure 6 SPECT/CT images as maximum intensity projections (MIPs) of Jurkat tumor-bearing mice at 1 h p.i. of ^177Lu-labeled ligands (200 pmol, ∼15 MBq). […] (B) Same SPECT/CT images of ^177Lu-1, ^177Lu-2, ^177Lu-5, and ^177Lu-6, adapted in a lower scale. T: tumor, L: liver, and K: kidneys. […] TEXT PRINTED IN THE PICTURE: (A) ^177Lu-1: Remaining Activity (% injected): 6 % | (A) ^177Lu-2: Remaining Activity (% injected): 7 % | (A) ^177Lu-5: Remaining Activity (% injected): 7 % | (A) ^177Lu-6: Remaining Activity (% injected): 8 % | (A) ^177Lu-7: Remaining Activity (% injected): 55 % | (A) ^177Lu-9: Remaining Activity (% injected): 94 %
(§1) The experimental protocol involving animals was approved by the Veterinary Office (Department of Health) of the Cantonal Basel-Stadt (Approval No. 30515) in accordance with the Swiss regulations for animal treatment. Female athymic nude-Foxn1^nu/Foxn1^+ mice (Envigo, The Netherlands), 4–6 weeks old, were injected subcutaneously with 10^7 Jurkat cells in a 200 μL (1:1) mixture of PBS and Matrigel (CorningMatrigelMembrane matrix, Fischer Scientific, Germany) on the right shoulder. The tumors were allowed to grow for 3–4 weeks before commencement of the experiments.
Nude mice bearing Jurkat xenografts were intravenously injected via the tail vein with ∼15 MBq (200 pmol) of the ^177Lu ligands and 8 MBq (200 pmol) of ^68Ga-7 were euthanized 1 h post injection (p.i.). The radioactivity in the syringe before and after injection was measured followed by measuring the amount of radioactivity remaining in the sacrificed mice. […]

Jurkat xenografts [2] = assay: in vivo; details: female, athymic nude-Foxn1^nu/Foxn1^+, mouse, iv, 200 pmol, 1 h
Experimental: Quantification of the total body distribution of ^177Lu-7 and ^68Ga-7 was performed in Jurkat xenografted mice after intravenous injection of 100 μL, 200 pmol, with […], respectively (n = 5). The mice were sacrificed at 1 h p.i. ^177Lu-7 and ^68Ga-7 accumulated mainly in the kidneys (83.1 ± 25.5 and 75.6 ± 30.3%IA/g, respectively, p = 0.59), liver (5.19 ± 1.08 and 4.08 ± 1.05%IA/g, respectively, p = 0.07) and tumor (2.25 ± 0.43 and 2.24 ± 0.57%IA/g, respectively, p = 0.97), as already seen in the SPECT/CT and PET/CT images (Figures 6 and 7). Uptake in the tumor was lower than for the kidneys and liver but higher as in all other tissues investigated. […] The uptake seen in the liver might be attributed, at least partially, to the fact that CXCR4 is constitutively expressed in the sinusoidal endothelial cells of the murine liver[38] or could be related to another yet-unknown mechanism previously reported for other CXCR4-targeting probes.[11],[39] Regretfully, there are no direct measurements available for the affinity of ^177Lu-7 with the murine CXCR4 (mCXCR4). This is relevant for assessing its total body distribution. However, we have shown that EPI-X4 and EPI-X4 derivatives are active in mouse models of inflammatory diseases[22],[25] and cancer.[40] More specifically, EPI-X4 derivatives such as JM#21 reduced immune cell influx in lungs of mice suffering from allergic asthma or reduced skin inflammation in a murine model of atopic dermatitis upon topical administration. […] Thus, we speculate that the DOTA conjugate of JM#173 (ligand-7) also cross-reacts to the mCXCR4. […] Last, but not the least, the uptake in the kidneys was predominant, and given the highly hydrophilic character of ^177Lu-7, is attributed, at least partially, to its excretion via this path.
as §1
Quantitative biodistribution studies of ^177Lu-7 (100 μL, 200 pmol, 0.8–1 MBq) and ^68Ga-7 (100 μL, 200 pmol, 2–3 MBq) were performed after intravenous injection of the radioligand via the tail vein on Jurkat xenografts. […] 1 h after injection of the radioligand, mice were sacrificed, organs of interest and blood were collected, rinsed of excess blood, blotted dry, weighed, and counted in a γ-counter. The samples were counted against a suitable diluted aliquot of the injected solution as the standard and the results are expressed as percentage injected activity per gram of tissue (%IA/g). Statistical analysis between selected organs was performed by Welch’s t-test and p values <0.05 were considered statistically significant.

CXCR4 [3] = target: T1, CXCR4 (Homo sapiens, UniProt P61073); assay: Antibody-competition assay (anti-CXCR4 clone 12G5) on Ghost-CXCR4 cells; type: binding; details: competition with CXCR4 antibody clone 12G5, Ghost-CXCR4 cells, 4 °C, 2 h; mean ± SEM
T1 construct: Jurkat cells, which are naturally expressing high levels of CXCR4; host or cells: Jurkat, clone E6-1
T1 sequence (P61073 whole entry): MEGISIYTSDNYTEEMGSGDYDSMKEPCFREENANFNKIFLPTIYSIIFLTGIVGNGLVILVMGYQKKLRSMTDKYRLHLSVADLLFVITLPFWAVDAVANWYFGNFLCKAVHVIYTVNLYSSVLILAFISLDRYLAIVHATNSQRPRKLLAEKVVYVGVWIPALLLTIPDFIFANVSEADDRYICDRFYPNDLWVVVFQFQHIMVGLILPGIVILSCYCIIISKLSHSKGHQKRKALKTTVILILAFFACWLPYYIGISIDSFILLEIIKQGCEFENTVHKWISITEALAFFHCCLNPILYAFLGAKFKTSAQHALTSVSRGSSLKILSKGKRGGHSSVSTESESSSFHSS
Experimental: (§2) Binding of the DOTA-conjugated EPI-X4 derivatives to CXCR4 was assessed by an antibody-competition assay[26] using Ghost cells stably transfected with CXCR4, as well as on Jurkat cells, which are naturally expressing high levels of CXCR4. […] The buffer was removed and plates were precooled at 4 °C. Ligands were serially diluted in PBS. The antibody (clone 12G5, Allophycocyanin labeled, BD Pharmingen #555976) was diluted in PBS containing 1% FBS. The antibody was used at a fixed concentration close to its KD. 15 μL of compound and immediately afterward 15 μL of the antibody were added to the cells. Plates were incubated at 4 °C in the dark for 2 h allowing to establish an equilibrium binding. Cells were then washed twice with PBS containing 1% FBS and fixed with 2% paraformaldehyde. Antibody binding was analyzed by flow cytometry (FACS CytoFLEX; Beckman Coulter).

CXCR4 [4] = target: T1, CXCR4; assay: Antibody-competition assay (anti-CXCR4 clone 12G5) on Jurkat cells; type: binding; details: competition with CXCR4 antibody clone 12G5, Jurkat cells, 4 °C, 2 h; mean ± SEM
Experimental: as §2

SMILES: CC[C@@H](C)[C@@H](N)C(=O)N[C@@H](CC(C)C)C(=O)N[C@@H](CCCNC(=N)N)C(=O)N[C@@H](Cc1c[nH]c2ccccc12)C(=O)N[C@@H](CO)C(=O)N[C@@H](CCCNC(=N)N)C(=O)N[C@@H](CCCCN)C(=O)N[C@@H](CCCCNC(=O)CN1CCN(CC(=O)O)CCN(CC(=O)O)CCN(CC(=O)O)CC1)C(N)=O [^68Ga-7, metal not drawn] (H-[dI]LRWSRKK(DOTA)-NH2; N-terminus assumed)
visualization of CXCR4-expressing tumor xenograft by imaging (Jurkat xenografts [1]): visualized the CXCR4-expressing tumor xenograft
uptake in adrenal (Jurkat xenografts [2]): 2.69 ± 0.94 % IA/g
uptake in femur (Jurkat xenografts [2]): 1.29 ± 0.43 % IA/g
uptake in heart (Jurkat xenografts [2]): 0.25 ± 0.09 % IA/g
uptake in intestine (Jurkat xenografts [2]): 0.59 ± 0.18 % IA/g
uptake in lung (Jurkat xenografts [2]): 1.78 ± 0.81 % IA/g
uptake in muscle (Jurkat xenografts [2]): 0.44 ± 0.26 % IA/g
uptake in pancreas (Jurkat xenografts [2]): 0.20 ± 0.11 % IA/g
uptake in spleen (Jurkat xenografts [2]): 0.85 ± 0.29 % IA/g
uptake in stomach (Jurkat xenografts [2]): 0.41 ± 0.16 % IA/g

SMILES: CCCCCCCCCCCCCCCC(=O)NCCCC[C@H](NC(=O)[C@H](CCCCN)NC(=O)[C@H](CO)NC(=O)[C@H](Cc1c[nH]c2ccccc12)NC(=O)[C@H](CCCNC(=N)N)NC(=O)[C@@H](NC(=O)[C@@H](N)[C@@H](C)CC)C(C)C)C(=O)N[C@H](C(=O)N1CCC[C@H]1C(=O)N[C@@H](CS)C(=O)N[C@H](C(=O)N[C@@H](CO)C(=O)N[C@@H](CCCCNC(=O)CN1CCN(CC(=O)O)CCN(CC(=O)O)CCN(CC(=O)O)CC1)C(=O)O)C(C)C)C(C)C [ligand-8, I^1VRWSKK^7(Pal)VPCS^12K(DOTA)] (H-IVRWSKK(Palmitoyl)VPCVSK(DOTA)-OH; N-terminus and C-terminus assumed)
IC50 (CXCR4 [3]): 15 ± 5 nM
IC50 (CXCR4 [4]): 4 ± 2 nM

Results, then the molecule that gave them:

IC50 (CXCR4 [3]): 225 ± 111 nM
IC50 (CXCR4 [4]): 122 ± 63 nM
SMILES: CC[C@H](C)[C@H](N)C(=O)N[C@@H](CC(C)C)C(=O)N[C@@H](CCCNC(=N)N)C(=O)N[C@@H](Cc1c[nH]c2ccccc12)C(=O)N[C@@H](CO)C(=O)N[C@@H](CCCNC(=N)N)C(=O)N[C@@H](CCCCN)C(=O)N[C@@H](CC(C)C)C(=O)N1CCC[C@H]1C(=O)N[C@@H](CSSC[C@H](NC(=O)[C@@H]1CCCN1C(=O)[C@H](CC(C)C)NC(=O)[C@H](CCCCN)NC(=O)[C@H](CCCNC(=N)N)NC(=O)[C@H](CO)NC(=O)[C@H](Cc1c[nH]c2ccccc12)NC(=O)[C@H](CCCNC(=N)N)NC(=O)[C@H](CC(C)C)NC(=O)[C@@H](N)[C@@H](C)CC)C(=O)N[C@H](C(=O)N[C@@H](CO)C(=O)N[C@@H](CCCCNC(=O)CN1CCN(CC(=O)O)CCN(CC(=O)O)CCN(CC(=O)O)CC1)C(=O)O)C(C)C)C(=O)N[C@H](C(=O)N[C@@H](CO)C(=O)N[C@@H](CCCCNC(=O)CN1CCN(CC(=O)O)CCN(CC(=O)O)CCN(CC(=O)O)CC1)C(=O)O)C(C)C [^natLu-1 dimer, metal not drawn]

IC50 (CXCR4 [3]): 122 ± 45 nM
SMILES: CC[C@H](C)[C@H](N)C(=O)N[C@@H](CC(C)C)C(=O)N[C@@H](CCCNC(=N)N)C(=O)N[C@@H](Cc1c[nH]c2ccccc12)C(=O)N[C@@H](CO)C(=O)N[C@@H](CCCNC(=N)N)C(=O)N[C@@H](CCCCN)C(=O)N[C@@H](CC(C)C)C(=O)N1CCC[C@H]1C(=O)N[C@@H](CO)C(=O)N[C@H](C(=O)N[C@@H](CO)C(=O)N[C@@H](CCCCNC(=O)CN1CCN(CC(=O)O)CCN(CC(=O)O)CCN(CC(=O)O)CC1)C(=O)O)C(C)C [^natLu-2, metal not drawn] (H-ILRWSRKLPSVSK(DOTA)-OH; N-terminus and C-terminus assumed)

IC50 (CXCR4 [3]): 763 ± 135 nM
IC50 (CXCR4 [4]): 662 ± 160 nM
SMILES: CC(C)C[C@@H](N)C(=O)N[C@@H](CC(C)C)C(=O)N[C@@H](CCCNC(=N)N)C(=O)N[C@@H](Cc1c[nH]c2ccccc12)C(=O)N[C@@H](CO)C(=O)N[C@@H](CCCNC(=N)N)C(=O)N[C@@H](CCCCN)C(=O)N[C@@H](CC(C)C)C(=O)N1CCC[C@H]1C(=O)N[C@@H](CSSC[C@H](NC(=O)[C@@H]1CCCN1C(=O)[C@H](CC(C)C)NC(=O)[C@H](CCCCN)NC(=O)[C@H](CCCNC(=N)N)NC(=O)[C@H](CO)NC(=O)[C@H](Cc1c[nH]c2ccccc12)NC(=O)[C@H](CCCNC(=N)N)NC(=O)[C@H](CC(C)C)NC(=O)[C@H](N)CC(C)C)C(=O)N[C@H](C(=O)N[C@@H](CO)C(=O)N[C@@H](CCCCNC(=O)CN1CCN(CC(=O)O)CCN(CC(=O)O)CCN(CC(=O)O)CC1)C(=O)O)C(C)C)C(=O)N[C@H](C(=O)N[C@@H](CO)C(=O)N[C@@H](CCCCNC(=O)CN1CCN(CC(=O)O)CCN(CC(=O)O)CCN(CC(=O)O)CC1)C(=O)O)C(C)C [^natLu-6 dimer, metal not drawn]
